According to patent US20030113743:

Legend:
[1] = test system: phK2^v217 (pro form of hK2 with valine at residue 217)
[2] = test system: synthetic peptide, residues 210-236 of hK2 (peptide #1 of FIG. 16)
[3] = test system: peptide #3 of FIG. 16, amino acid residues -7 to +7 of phK2

synthetic peptide, residues 210-236 of hK2 (peptide #1 of FIG. 16), sequence (chain, as listed by the source): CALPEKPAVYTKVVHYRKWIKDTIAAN

| Substance | conversion of pro to mature form (HIC-HPLC) [1] | peptide bond cleavage (RP-HPLC, N-terminal sequencing) [2] | conversion of pro to mature form (HIC-HPLC, N-terminal sequencing) [1] | peptide bond cleavage [3] |
| --- | --- | --- | --- | --- |
| hK2^v217 (mature hK2 polypeptide having an alanine to valine substitution at amino acid position 217) | no difference in the ratios of the two hK2 forms was detected even after 6 hours | trypsin-like cleavage at a 2:1 ratio over the chymotrypsin-like cleavage | – | – |
| phK2^v217 (pro form of hK2 with valine at residue 217) | – | showed no amidolytic activity | – | – |
| prostate-specific antigen protein, hK3 (PSA) | – | PSA cleaved the Y-R bond primarily | – | – |
| trypsin | – | – | complete conversion of phK2^v217 to hK2^v217 | – |
| wild type mature hK2 (prostate-specific glandular kallikrein protein) | at a rate about 30× slower than trypsin | its activity was exclusive for the trypsin-like site (R-K) | – | hK2 was able to cleave this peptide releasing the propeptide region |
